14 molecules from patent US5501962, “Interleuken-3 (IL-3) human/murine hybrid polypeptides and recombinant production of the same” (G. D. Searle & Co., dated 1996) can be followed below.

Assay [1] deals with IL-3 receptor (human) (UniProt P26951). Put plainly: competition with iodinated hIL-3 ligand (pMON 5966) on AML 193 1.3.9 cells.
The target is the same in assay [2].
Assay [3] has as its target T1, IL-3 receptor (human, UniProt P26951).
T1 sequence: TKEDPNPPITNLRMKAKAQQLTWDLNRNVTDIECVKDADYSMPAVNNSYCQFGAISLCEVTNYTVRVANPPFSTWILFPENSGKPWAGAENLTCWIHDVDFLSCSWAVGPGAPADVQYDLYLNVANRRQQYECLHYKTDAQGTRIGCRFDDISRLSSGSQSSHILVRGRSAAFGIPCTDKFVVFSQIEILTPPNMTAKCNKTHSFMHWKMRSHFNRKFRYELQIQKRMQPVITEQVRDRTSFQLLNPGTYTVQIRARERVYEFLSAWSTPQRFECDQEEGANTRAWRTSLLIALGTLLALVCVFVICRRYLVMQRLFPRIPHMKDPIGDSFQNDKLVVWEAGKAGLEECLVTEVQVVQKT
The assay can be described thus: cell-based or functional assay.

Assay [4] concerns the target T1, IL-3 receptor. Put plainly: competition with iodinated hIL-3 ligand (pMON 5966) on AML 193 1.3.9 cells. The procedure: These cells were further selected using biotin conjugated hIL-3 and FITC-avidin for repetitive fluorescence activated cell sorting (FACS) and were designated AML 193 1.3.9. This line was grown in IMDM supplemented with 5% FBS and 40 μM beta-mercaptoethanol and human IL-3 (1 to 4 ng/mL). The HL-60 cell line was obtained from ATCC and grown in RPMI 1640, 10% FBS and 40 μM beta-mercaptoethanol. Ligand for IL-3 receptor assays was derived from an E. coli expression vector encoding full length hIL-3 molecule (amino acids 1 to 133) having a 14 amino acid N-terminal extension. ([…][SEQ ID NO: 119]; designated as pMON 5966, est. MW 16,976). This construct contained two additional tyrosines which were essential for iodination to high-specific radioactivity without loss of biological activity. This ligand was radiolabeled with iodine-125 using an insoluble lactoperoxidase method (®Enzymobeads) and used following HPLC purification. […] Ligand for GM-CSF receptor assays was prepared by radiolabelling native GM-CSF with iodine-125 using the IODO-GEN method (Pierce Chemical) according to manufacturer's specifications.
For IL-3 receptor assays, AML 193 1.3.9 cells were incubated overnight in medium without growth factor. On the day of the assay the cells were washed 3 times with Hanks balanced salt solution, resuspended in assay buffer (IMDM, 5% FBS, 40 μM 2-ME and 0.1% BSA) and counted using a hemacytometer. Assay tubes contained the test compounds or inhibitors under study, 0.2% sodium azide, iodinated hIL-3 ligand (pMON 5966), 5–10×10^6 cells, and buffer in a total volume of 100 μL. Unlabelled hIL-3 (250 nM) was used to define non-specific binding, and each assay point was set up in triplicate. After incubation with gentle orbital agitation at 200 rpm for two hours at room temperature, 1 mL of ice-cold medium was added and the binding reaction was immediately terminated by centrifugation. The supernatant was removed by aspiration, and the tip of the tube containing the cell pellet was cut off and counted in a Micromedic gamma counter.

The target in assay [5] is IL-3 receptor (human) (UniProt P26951). Put plainly: competition with iodinated hIL-3 ligand (pMON 5966) on AML 193 1.3.9 cells; this is the reference itself.

B1: pMON5963 (Met-15-125hIL-3 Ala 101) having an M9 substitution (ligand)
chain: MNCSNMIDEIITHLKQPPLPLLDFNNLNGEDQDILMENNLRRPNLEAFNRAVKSLQNASAIKSNLQKLNSCLPLATAAPTRHPIHIKAGDWNEFRRKLTFYLKTLENAQAQQ
B1 had an IL-3 Receptor Binding Activity (relative to native hIL-3) (relative to native hIL-3) with IL-3 receptor (human) [1] of 1.32. In the assay with IL-3 receptor (human) [2], this molecule gave a Growth Factor Activity (AML 193 1.3 proliferation, 3H-thymidine; Relative Biological Activity) (relative to native hIL-3) of 5.01 and a Leukotriene Stimulating Activity (IL-3 mediated sulfidoleukotriene release from human mononuclear cells; Relative Biological Activity) (relative to native hIL-3) of 12.9.

B2: pMON5975 (Met-15-125hIL-3) having an M4 substitution (ligand)
chain: MNCSNMIDEIITHLKQPPLPLLDFNNLTDDEGPILMENNLRRPNLEAFNRAVKSLQNASAIESILKNLLPCLPLATAAPTRHPIHIKDGDWNEFRRKLTFYLKTLENAQAQQ
On to B2, for which the IL-3 Receptor Binding Activity (relative to native hIL-3) (relative to native hIL-3) with IL-3 receptor (human) [1] was under 0.01. Further, in the assay with IL-3 receptor (human) [2], the Growth Factor Activity (AML 193 1.3 proliferation, 3H-thymidine; Relative Biological Activity) (relative to native hIL-3) was 0.04 and the Leukotriene Stimulating Activity (IL-3 mediated sulfidoleukotriene release from human mononuclear cells; Relative Biological Activity) (relative to native hIL-3) was under 0.01.

B3: pMON5973 (Met-15-125hIL-3) having an M7 substitution (ligand)
chain: MNCSNMIDEIITHLKQPPLPLLDFNNLNGEDQDILMENNLRRPNLEAFNRSQGEVDNASAIESILKNLLPCLPLATAAPTRHPIHIKDGDWNEFRRKLTFYLKTLENAQAQQ
For B3, in the assay with IL-3 receptor [3], the “Growth Factor Activity (AML 193 1.3 proliferation, 3H-thymidine; Relative Biological Activity)” value is 0.2 relative to native hIL-3 and the “Leukotriene Stimulating Activity (IL-3 mediated sulfidoleukotriene release from human mononuclear cells; Relative Biological Activity)” value was ≤ 0.01 relative to native hIL-3.

B4: pMON5974 (Met-15-125hIL-3 del aa29-35) having the M2 deletion shown in FIG. 19 (ligand)
chain: MNCSNMIDEIITHLKDFNNLNGEDQDILMENNLRRPNLEAFNRAVKSLQNASAIESILKNLLPCLPLATAAPTRHPIHIKDGDWNEFRRKLTFYLKTLENAQAQQ
On to B4, for which, in the assay with IL-3 receptor [4], the “IL-3 Receptor Binding Activity (relative to native hIL-3)” value is ≤ 0.01 relative to native hIL-3 and the binding result is given as “no binding”. In the assay with IL-3 receptor (human) [2], this molecule gave a Growth Factor Activity (AML 193 1.3 proliferation, 3H-thymidine; Relative Biological Activity) (relative to native hIL-3) of 0.08 and a Leukotriene Stimulating Activity (IL-3 mediated sulfidoleukotriene release from human mononuclear cells; Relative Biological Activity) (relative to native hIL-3) of under 0.01.

B5: pMON5977 (Met-15-125hIL-3) having an M3 substitution (ligand)
chain: MNCSNMIDEIITHLKQPPLPLLEPELKNGEDQDILMENNLRRPNLEAFNRAVKSLQNASAIESILKNLLPCLPLATAAPTRHPIHIKDGDWNEFRRKLTFYLKTLENAQAQQ
Turning to B5, in the assay with IL-3 receptor (human) [1], the IL-3 Receptor Binding Activity (relative to native hIL-3) (relative to native hIL-3) turned out to be 0.19. Further, in the assay with IL-3 receptor (human) [2], the Growth Factor Activity (AML 193 1.3 proliferation, 3H-thymidine; Relative Biological Activity) (relative to native hIL-3) is 3.98 and the Leukotriene Stimulating Activity (IL-3 mediated sulfidoleukotriene release from human mononuclear cells; Relative Biological Activity) (relative to native hIL-3) is 0.31.

B6: pMON5962 (Met-15-125hIL-3) having an M10 substitution (ligand)
chain: MNCSNMIDEIITHLKQPPLPLLDFNNLNGEDQDILMENNLRRPNLEAFNRAVKSLQNASAIESILKNLLPCLPTSANDPTRHPIHIKDGDWNEFRRKLTFYLKTLENAQAQQ
B6 gave an IL-3 Receptor Binding Activity (relative to native hIL-3) (relative to native hIL-3) in the assay with IL-3 receptor (human) [1] of 0.81. Besides, in the assay with IL-3 receptor (human) [2], the Growth Factor Activity (AML 193 1.3 proliferation, 3H-thymidine; Relative Biological Activity) (relative to native hIL-3) was found to be 1.26 and the Leukotriene Stimulating Activity (IL-3 mediated sulfidoleukotriene release from human mononuclear cells; Relative Biological Activity) (relative to native hIL-3) came to 10.7.

B7: pMON5970 (Met-15-125hIL-3) having an M5 substitution (ligand)
chain: MNCSNMIDEIITHLKQPPLPLLDFNNLNGEDQDSLRNKSLRRPNLEAFNRAVKSLQNASAIESILKNLLPCLPLATAAPTRHPIHIKDGDWNEFRRKLTFYLKTLENAQAQQ
B7 came in with an IL-3 Receptor Binding Activity (relative to native hIL-3) (relative to native hIL-3) with IL-3 receptor (human) [1] of under 0.01. In the assay with IL-3 receptor (human) [2], this molecule yielded a Growth Factor Activity (AML 193 1.3 proliferation, 3H-thymidine; Relative Biological Activity) (relative to native hIL-3) of 0.04 and a Leukotriene Stimulating Activity (IL-3 mediated sulfidoleukotriene release from human mononuclear cells; Relative Biological Activity) (relative to native hIL-3) of under 0.01.

B8: (1-133)hIL-3 (ligand)
chain: APMTQTTSLKTSWVNCSNMIDEIITHLKQPPLPLLDFNNLNGEDQDILMENNLRRPNLEAFNRAVKSLQNASAIESILKNLLPCLPLATAAPTRHPIHIKDGDWNEFRRKLTFYLKTLENAQAQQTTLSLAIF
Consider B8, for which the IL-3 Receptor Binding Activity (relative to native hIL-3) (relative to native hIL-3) with IL-3 receptor (human) [5] is 1. In the assay with IL-3 receptor (human) [2], this molecule returned a Growth Factor Activity (AML 193 1.3 proliferation, 3H-thymidine; Relative Biological Activity) (relative to native hIL-3) of 1 and a Leukotriene Stimulating Activity (IL-3 mediated sulfidoleukotriene release from human mononuclear cells; Relative Biological Activity) (relative to native hIL-3) of 1.

B9: pMON5968 (Met-15-125hIL-3) having an M13 substitution (ligand)
chain: MNCSNMIDEIITHLKQPPLPLLDFNNLNGEDQDILMENNLRRPNLEAFNRAVKSLQNASAIESILKNLLPCLPLATAAPTRHPIHIKDLDEFRRKLTFYLKTLENAQAQQ
As for B9, the “IL-3 Receptor Binding Activity (relative to native hIL-3)” value with IL-3 receptor [4] was 0.25 relative to native hIL-3. In the assay with IL-3 receptor (human) [2], the Growth Factor Activity (AML 193 1.3 proliferation, 3H-thymidine; Relative Biological Activity) (relative to native hIL-3) was found to be 0.06 and the Leukotriene Stimulating Activity (IL-3 mediated sulfidoleukotriene release from human mononuclear cells; Relative Biological Activity) (relative to native hIL-3) came to 0.59.

B10: pMON5980 (Met-Ala-15-125hIL-3) having an M1 substitution (ligand)
chain: MANCSSIVKEIIGKLPQPPLPLLDFNNLNGEDQDILMENNLRRPNLEAFNRAVKSLQNASAIESILKNLLPCLPLATAAPTRHPIHIKDGDWNEFRRKLTFYLKTLENAQAQQ
Regarding B10, the IL-3 Receptor Binding Activity (relative to native hIL-3) (relative to native hIL-3) with IL-3 receptor (human) [1] was under 0.01. In the assay with IL-3 receptor (human) [2], this molecule yielded a Growth Factor Activity (AML 193 1.3 proliferation, 3H-thymidine; Relative Biological Activity) (relative to native hIL-3) of 0.03 and a Leukotriene Stimulating Activity (IL-3 mediated sulfidoleukotriene release from human mononuclear cells; Relative Biological Activity) (relative to native hIL-3) of under 0.01.

B11: pMON5979 (Met-15-125hIL-3 ALA 101) having an M8 substitution (ligand)
chain: MNCSNMIDEIITHLKQPPLPLLDFNNLNGEDQDILMENNLRRPNLEAFNRAVKSLQPEDRYVIESILKNLLPCLPLATAAPTRHPIHIKAGDWNEFRRKLTFYLKTLENAQAQQ
Take B11: the “IL-3 Receptor Binding Activity (relative to native hIL-3)” value with IL-3 receptor [4] is 1.21 relative to native hIL-3. Further, in the assay with IL-3 receptor (human) [2], the Growth Factor Activity (AML 193 1.3 proliferation, 3H-thymidine; Relative Biological Activity) (relative to native hIL-3) was found to be 7.94 and the Leukotriene Stimulating Activity (IL-3 mediated sulfidoleukotriene release from human mononuclear cells; Relative Biological Activity) (relative to native hIL-3) came out at 0.46.

B12: pMON5972 (Met-15-125hIL-3) having an M6 substitution (ligand)
chain: MNCSNMIDEIITHLKQPPLPLLDFNNLNGEDQDILMENNFRRVNLSKFVEAVKSLQNASAIESILKNLLPCLPLATAAPTRHPIHIKDGDWNEFRRKLTFYLKTLENAQAQQ
B12: in the assay with IL-3 receptor (human) [1], the IL-3 Receptor Binding Activity (relative to native hIL-3) (relative to native hIL-3) was found to be 0.08. In the assay with IL-3 receptor (human) [2], the Growth Factor Activity (AML 193 1.3 proliferation, 3H-thymidine; Relative Biological Activity) (relative to native hIL-3) was determined as 0.2 and the Leukotriene Stimulating Activity (IL-3 mediated sulfidoleukotriene release from human mononuclear cells; Relative Biological Activity) (relative to native hIL-3) was determined as 0.15.

B13: pMON5960 (Met-15-125hIL-3) having an M11 substitution (ligand)
chain: MNCSNMIDEIITHLKQPPLPLLDFNNLNGEDQDILMENNLRRPNLEAFNRAVKSLQNASAIESILKNLLPCLPLATAASALPPIHIKDGDWNEFRRKLTFYLKTLENAQAQQ
In the assay with IL-3 receptor (human) [1], B13 registered an IL-3 Receptor Binding Activity (relative to native hIL-3) (relative to native hIL-3) of under 0.01. In the assay with IL-3 receptor (human) [2], this molecule gave a Growth Factor Activity (AML 193 1.3 proliferation, 3H-thymidine; Relative Biological Activity) (relative to native hIL-3) of 0.13 and a Leukotriene Stimulating Activity (IL-3 mediated sulfidoleukotriene release from human mononuclear cells; Relative Biological Activity) (relative to native hIL-3) of 0.1.

B14: pMON5961 (Met-15-125hIL-3) having an M12 substitution (ligand)
chain: MNCSNMIDEIITHLKQPPLPLLDFNNLNGEDQDILMENNLRRPNLEAFNRAVKSLQNASAIESILKNLLPCLPLATAAPTRHGVFIRDGDWNEFRRKLTFYLKTLENAQAQQ
Regarding B14, the IL-3 Receptor Binding Activity (relative to native hIL-3) (relative to native hIL-3) with IL-3 receptor (human) [1] amounted to 1.05. Also, in the assay with IL-3 receptor (human) [2], the Growth Factor Activity (AML 193 1.3 proliferation, 3H-thymidine; Relative Biological Activity) (relative to native hIL-3) worked out at 0.5 and the Leukotriene Stimulating Activity (IL-3 mediated sulfidoleukotriene release from human mononuclear cells; Relative Biological Activity) (relative to native hIL-3) amounted to 3.63.
